{"source": "paper PMC9482650", "about": "“Quantitative fragmentomics allow affinity mapping of interactomes” (Nature Communications, 2022)"}
{"target": "FRMPD2_3, Q68DX3", "sequence (Q68DX3 1073-1166)": "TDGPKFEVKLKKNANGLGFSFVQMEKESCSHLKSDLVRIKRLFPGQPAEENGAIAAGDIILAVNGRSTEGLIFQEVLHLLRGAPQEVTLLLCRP", "experiment": "holdup assay", "parameters": "key: below the threshold = too weak to quantify, mostly under pKd 3.1 to 4", "conditions": "plain residues with an end cap or a label only (N-terminal biotin on a linker: ado-ado)"}
{"binder": "SNAGNTATKA", "note": "[NOSTRIN, Q8IVI9]", "pKd": "below the threshold"}
{"target": "T1, DLG3_1, Q92796", "T1 sequence (Q92796 125-227, limits assumed, looked up)": "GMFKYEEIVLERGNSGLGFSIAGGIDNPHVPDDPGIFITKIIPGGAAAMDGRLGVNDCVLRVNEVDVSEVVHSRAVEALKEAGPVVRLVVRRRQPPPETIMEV", "experiment": "holdup assay", "parameters": "key: below the threshold = too weak to quantify, mostly under pKd 3.1 to 4", "conditions": "plain residues with an end cap or a label only (N-terminal biotin on a linker: ado-ado)"}
{"binder": "SNAGNTATKA", "note": "[NOSTRIN, Q8IVI9]", "pKd": "below the threshold"}
{"target": "NOS1, P29475", "sequence (P29475 9-101)": "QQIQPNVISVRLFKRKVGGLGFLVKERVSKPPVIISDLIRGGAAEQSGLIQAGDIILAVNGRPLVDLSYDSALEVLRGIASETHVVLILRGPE", "experiment": "holdup assay", "parameters": "key: below the threshold = too weak to quantify, mostly under pKd 3.1 to 4", "conditions": "plain residues with an end cap or a label only (N-terminal biotin on a linker: ado-ado)"}
{"binder": "SNAGNTATKA", "note": "[NOSTRIN, Q8IVI9]", "pKd": "below the threshold"}
{"target": "T2, SYNJ2BP, P57105", "T2 sequence (P57105 8-110, limits assumed, looked up)": "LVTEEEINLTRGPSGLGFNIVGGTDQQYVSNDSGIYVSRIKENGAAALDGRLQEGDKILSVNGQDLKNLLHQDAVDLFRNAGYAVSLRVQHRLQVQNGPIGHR", "experiment": "holdup assay", "parameters": "key: below the threshold = too weak to quantify, mostly under pKd 3.1 to 4", "conditions": "plain residues with an end cap or a label only (N-terminal biotin on a linker: ado-ado)"}
{"binder": "SNAGNTATKA", "note": "[NOSTRIN, Q8IVI9]", "pKd": "below the threshold"}
{"target": "T3, GRIP1_5, Q9Y3R0", "T3 sequence (Q9Y3R0 568-668, limits assumed, looked up)": "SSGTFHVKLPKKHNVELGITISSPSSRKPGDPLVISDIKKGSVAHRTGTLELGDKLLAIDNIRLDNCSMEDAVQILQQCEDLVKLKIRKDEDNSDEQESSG", "experiment": "holdup assay", "parameters": "key: below the threshold = too weak to quantify, mostly under pKd 3.1 to 4", "conditions": "plain residues with an end cap or a label only (N-terminal biotin on a linker: ado-ado)"}
{"binder": "SNAGNTATKA", "note": "[NOSTRIN, Q8IVI9]", "pKd": "below the threshold"}
{"target": "PDLIM1, O00151", "sequence (O00151 1-87)": "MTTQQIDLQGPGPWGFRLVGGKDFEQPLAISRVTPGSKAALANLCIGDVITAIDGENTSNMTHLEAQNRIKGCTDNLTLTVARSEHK", "experiment": "holdup assay", "parameters": "key: below the threshold = too weak to quantify, mostly under pKd 3.1 to 4", "conditions": "plain residues with an end cap or a label only (N-terminal biotin on a linker: ado-ado)"}
{"binder": "SNAGNTATKA", "note": "[NOSTRIN, Q8IVI9]", "pKd": "below the threshold"}
{"target": "HTRA1, Q92743", "sequence (Q92743 360-477)": "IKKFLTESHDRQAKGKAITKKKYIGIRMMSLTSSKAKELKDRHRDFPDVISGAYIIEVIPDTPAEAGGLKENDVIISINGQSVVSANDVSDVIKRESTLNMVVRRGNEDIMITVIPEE", "experiment": "holdup assay", "parameters": "key: below the threshold = too weak to quantify, mostly under pKd 3.1 to 4", "conditions": "plain residues with an end cap or a label only (N-terminal biotin on a linker: ado-ado)"}
{"binder": "SNAGNTATKA", "note": "[NOSTRIN, Q8IVI9]", "pKd": "below the threshold"}
{"target": "AHNAK1, Q09666", "sequence (Q09666 4-100)": "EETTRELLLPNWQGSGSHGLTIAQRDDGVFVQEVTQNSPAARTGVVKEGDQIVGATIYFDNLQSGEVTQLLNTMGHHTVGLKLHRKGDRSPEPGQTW", "experiment": "holdup assay", "parameters": "key: below the threshold = too weak to quantify, mostly under pKd 3.1 to 4", "conditions": "plain residues with an end cap or a label only (N-terminal biotin on a linker: ado-ado)"}
{"binder": "SNAGNTATKA", "note": "[NOSTRIN, Q8IVI9]", "pKd": "below the threshold"}
{"target": "T4, NHERF3_1, Q5T2W1", "T4 sequence (Q5T2W1 4-100, limits assumed, looked up)": "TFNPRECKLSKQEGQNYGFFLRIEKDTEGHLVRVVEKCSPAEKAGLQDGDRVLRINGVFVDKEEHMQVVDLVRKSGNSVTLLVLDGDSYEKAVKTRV", "experiment": "holdup assay", "parameters": "key: below the threshold = too weak to quantify, mostly under pKd 3.1 to 4", "conditions": "plain residues with an end cap or a label only (N-terminal biotin on a linker: ado-ado)"}
{"binder": "SNAGNTATKA", "note": "[NOSTRIN, Q8IVI9]", "pKd": "below the threshold"}
{"target": "MAGI1_1, Q96QZ7", "sequence (Q96QZ7 1-106)": "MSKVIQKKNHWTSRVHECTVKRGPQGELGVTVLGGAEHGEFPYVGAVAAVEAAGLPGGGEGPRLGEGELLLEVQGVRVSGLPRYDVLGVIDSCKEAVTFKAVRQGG", "experiment": "holdup assay", "parameters": "key: below the threshold = too weak to quantify, mostly under pKd 3.1 to 4", "conditions": "plain residues with an end cap or a label only (N-terminal biotin on a linker: ado-ado)"}
{"binder": "SNAGNTATKA", "note": "[NOSTRIN, Q8IVI9]", "pKd": "below the threshold"}
{"target": "PICK1, Q9NRD5", "sequence (Q9NRD5 17-115)": "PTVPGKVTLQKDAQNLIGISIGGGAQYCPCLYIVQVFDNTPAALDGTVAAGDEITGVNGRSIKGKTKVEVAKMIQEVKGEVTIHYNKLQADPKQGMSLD", "experiment": "holdup assay", "parameters": "key: below the threshold = too weak to quantify, mostly under pKd 3.1 to 4", "conditions": "plain residues with an end cap or a label only (N-terminal biotin on a linker: ado-ado)"}
{"binder": "SNAGNTATKA", "note": "[NOSTRIN, Q8IVI9]", "pKd": "below the threshold"}
{"target": "GRIP2_5, Q9C0E4", "sequence (Q9C0E4 544-642)": "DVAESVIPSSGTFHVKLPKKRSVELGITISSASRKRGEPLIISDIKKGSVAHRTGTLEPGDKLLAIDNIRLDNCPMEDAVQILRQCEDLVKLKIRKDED", "experiment": "holdup assay", "parameters": "key: below the threshold = too weak to quantify, mostly under pKd 3.1 to 4", "conditions": "plain residues with an end cap or a label only (N-terminal biotin on a linker: ado-ado)"}
{"binder": "SNAGNTATKA", "note": "[NOSTRIN, Q8IVI9]", "pKd": "below the threshold"}
{"target": "T5, TIAM2, Q8IVF5", "T5 sequence (Q8IVF5 885-986, limits assumed, looked up)": "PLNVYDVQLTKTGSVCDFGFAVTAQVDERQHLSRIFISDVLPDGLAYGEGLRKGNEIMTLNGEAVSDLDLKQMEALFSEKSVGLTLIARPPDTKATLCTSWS", "experiment": "holdup assay", "parameters": "key: below the threshold = too weak to quantify, mostly under pKd 3.1 to 4", "conditions": "plain residues with an end cap or a label only (N-terminal biotin on a linker: ado-ado)"}
{"binder": "SNAGNTATKA", "note": "[NOSTRIN, Q8IVI9]", "pKd": 4.11}
{"target": "T6, APBA1_2, Q02410", "T6 sequence (Q02410 742-832, limits assumed, looked up)": "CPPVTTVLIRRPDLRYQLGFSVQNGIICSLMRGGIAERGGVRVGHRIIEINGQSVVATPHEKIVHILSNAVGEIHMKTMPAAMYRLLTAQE", "experiment": "holdup assay", "parameters": "key: below the threshold = too weak to quantify, mostly under pKd 3.1 to 4", "conditions": "plain residues with an end cap or a label only (N-terminal biotin on a linker: ado-ado)"}
{"binder": "SNAGNTATKA", "note": "[NOSTRIN, Q8IVI9]", "pKd": "below the threshold"}
{"target": "T7, RHPN1, Q8TCX5", "T7 sequence (Q8TCX5 508-602, limits assumed, looked up)": "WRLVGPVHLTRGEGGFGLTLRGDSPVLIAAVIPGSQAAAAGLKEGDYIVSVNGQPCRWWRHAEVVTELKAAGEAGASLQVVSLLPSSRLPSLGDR", "experiment": "holdup assay", "parameters": "key: below the threshold = too weak to quantify, mostly under pKd 3.1 to 4", "conditions": "plain residues with an end cap or a label only (N-terminal biotin on a linker: ado-ado)"}
{"binder": "SNAGNTATKA", "note": "[NOSTRIN, Q8IVI9]", "pKd": "below the threshold"}
{"target": "T8, GRIP1_3, Q9Y3R0", "T8 sequence (Q9Y3R0 247-346, limits assumed, looked up)": "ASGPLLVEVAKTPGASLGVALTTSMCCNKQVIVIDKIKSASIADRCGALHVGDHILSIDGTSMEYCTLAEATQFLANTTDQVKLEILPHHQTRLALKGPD", "experiment": "holdup assay", "parameters": "key: below the threshold = too weak to quantify, mostly under pKd 3.1 to 4", "conditions": "plain residues with an end cap or a label only (N-terminal biotin on a linker: ado-ado)"}
{"binder": "SNAGNTATKA", "note": "[NOSTRIN, Q8IVI9]", "pKd": "below the threshold"}
{"target": "SNX27, Q96L92", "experiment": "holdup assay", "parameters": "key: below the threshold = too weak to quantify, mostly under pKd 3.1 to 4", "conditions": "plain residues with an end cap or a label only (N-terminal biotin on a linker: ado-ado)"}
{"binder": "SNAGNTATKA", "note": "[NOSTRIN, Q8IVI9]", "pKd": "below the threshold"}
{"target": "GRID2IP_2, A4D2P6", "sequence (A4D2P6 272-370)": "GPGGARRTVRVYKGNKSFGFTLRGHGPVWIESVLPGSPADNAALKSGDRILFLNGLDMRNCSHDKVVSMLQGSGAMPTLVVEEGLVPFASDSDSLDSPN", "experiment": "holdup assay", "parameters": "key: below the threshold = too weak to quantify, mostly under pKd 3.1 to 4", "conditions": "plain residues with an end cap or a label only (N-terminal biotin on a linker: ado-ado)"}
{"binder": "SNAGNTATKA", "note": "[NOSTRIN, Q8IVI9]", "pKd": "below the threshold"}
{"target": "T9, LNX2_2, Q8N448", "T9 sequence (Q8N448 334-432, limits assumed, looked up)": "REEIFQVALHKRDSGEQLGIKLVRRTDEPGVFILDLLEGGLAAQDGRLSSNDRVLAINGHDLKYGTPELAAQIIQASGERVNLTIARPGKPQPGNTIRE", "experiment": "holdup assay", "parameters": "key: below the threshold = too weak to quantify, mostly under pKd 3.1 to 4", "conditions": "plain residues with an end cap or a label only (N-terminal biotin on a linker: ado-ado)"}
{"binder": "SNAGNTATKA", "note": "[NOSTRIN, Q8IVI9]", "pKd": 3.56}
{"target": "T10, MPP2, Q14168", "T10 sequence (Q14168 180-250, limits assumed, looked up)": "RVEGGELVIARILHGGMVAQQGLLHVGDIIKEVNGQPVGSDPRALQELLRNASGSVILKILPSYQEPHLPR", "experiment": "holdup assay", "parameters": "key: below the threshold = too weak to quantify, mostly under pKd 3.1 to 4", "conditions": "plain residues with an end cap or a label only (N-terminal biotin on a linker: ado-ado)"}
{"binder": "SNAGNTATKA", "note": "[NOSTRIN, Q8IVI9]", "pKd": "below the threshold"}
{"target": "T11, APBA1_1, Q02410", "T11 sequence (Q02410 651-752, limits assumed, looked up)": "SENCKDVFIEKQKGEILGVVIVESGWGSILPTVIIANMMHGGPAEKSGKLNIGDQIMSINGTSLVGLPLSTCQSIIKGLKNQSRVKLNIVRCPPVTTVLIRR", "experiment": "holdup assay", "parameters": "key: below the threshold = too weak to quantify, mostly under pKd 3.1 to 4", "conditions": "plain residues with an end cap or a label only (N-terminal biotin on a linker: ado-ado)"}
{"binder": "SNAGNTATKA", "note": "[NOSTRIN, Q8IVI9]", "pKd": "below the threshold"}
{"target": "GRIP2_4, Q9C0E4", "sequence (Q9C0E4 446-548)": "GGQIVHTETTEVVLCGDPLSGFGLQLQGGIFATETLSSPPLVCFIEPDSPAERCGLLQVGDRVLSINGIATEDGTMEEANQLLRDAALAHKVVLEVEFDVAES", "experiment": "holdup assay", "parameters": "key: below the threshold = too weak to quantify, mostly under pKd 3.1 to 4", "conditions": "plain residues with an end cap or a label only (N-terminal biotin on a linker: ado-ado)"}
{"binder": "SNAGNTATKA", "note": "[NOSTRIN, Q8IVI9]", "pKd": "below the threshold"}
{"target": "T12, DLG3_3, Q92796", "T12 sequence (Q92796 374-475, limits assumed, looked up)": "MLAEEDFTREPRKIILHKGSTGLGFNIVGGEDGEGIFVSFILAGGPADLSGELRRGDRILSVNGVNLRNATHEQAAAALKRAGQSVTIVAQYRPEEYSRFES", "experiment": "holdup assay", "parameters": "key: below the threshold = too weak to quantify, mostly under pKd 3.1 to 4", "conditions": "plain residues with an end cap or a label only (N-terminal biotin on a linker: ado-ado)"}
{"binder": "SNAGNTATKA", "note": "[NOSTRIN, Q8IVI9]", "pKd": "below the threshold"}
{"target": "IL16_3, Q14005", "sequence (Q14005 1107-1207)": "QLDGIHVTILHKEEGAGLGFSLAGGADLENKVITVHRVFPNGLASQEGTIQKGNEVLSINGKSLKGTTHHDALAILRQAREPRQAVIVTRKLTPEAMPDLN", "experiment": "holdup assay", "parameters": "key: below the threshold = too weak to quantify, mostly under pKd 3.1 to 4", "conditions": "plain residues with an end cap or a label only (N-terminal biotin on a linker: ado-ado)"}
{"binder": "SNAGNTATKA", "note": "[NOSTRIN, Q8IVI9]", "pKd": "below the threshold"}
{"target": "DLG4_1, P78352", "sequence (P78352 62-152)": "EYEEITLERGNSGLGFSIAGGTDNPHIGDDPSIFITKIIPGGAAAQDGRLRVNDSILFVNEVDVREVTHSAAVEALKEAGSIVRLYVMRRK", "experiment": "holdup assay", "parameters": "key: below the threshold = too weak to quantify, mostly under pKd 3.1 to 4", "conditions": "plain residues with an end cap or a label only (N-terminal biotin on a linker: ado-ado)"}
{"binder": "SNAGNTATKA", "note": "[NOSTRIN, Q8IVI9]", "pKd": "below the threshold"}
{"target": "Inadl_8, Q8NI35", "sequence (Q8NI35 1425-1530)": "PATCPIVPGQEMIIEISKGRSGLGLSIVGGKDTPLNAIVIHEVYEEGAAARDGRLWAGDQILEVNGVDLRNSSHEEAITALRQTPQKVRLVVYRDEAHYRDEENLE", "experiment": "holdup assay", "parameters": "key: below the threshold = too weak to quantify, mostly under pKd 3.1 to 4", "conditions": "plain residues with an end cap or a label only (N-terminal biotin on a linker: ado-ado)"}
{"binder": "SNAGNTATKA", "note": "[NOSTRIN, Q8IVI9]", "pKd": "below the threshold"}
